Values quoted from earlier work, collected in article PMC6105697.

Target: NKG2D (Homo sapiens) (UniProt P26718)
Assay: surface plasmon resonance

Sequence of UniProt P26718 (P26718 whole entry): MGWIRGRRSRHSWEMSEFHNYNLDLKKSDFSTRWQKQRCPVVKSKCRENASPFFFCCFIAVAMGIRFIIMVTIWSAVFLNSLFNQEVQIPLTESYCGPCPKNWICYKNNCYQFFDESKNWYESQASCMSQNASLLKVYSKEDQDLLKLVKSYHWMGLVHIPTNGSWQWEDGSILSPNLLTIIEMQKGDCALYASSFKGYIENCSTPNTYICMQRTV

For ULBP0602 (from UniProt Q5VY80), the Kd is given as 15.5 nM.
